System: MS2 coat protein
Assay: apparent KD of MS2 coat protein; designed switch direction (-1 OFF switch, 1 ON switch): -1; higher = weaker reporter binding
Outline: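 The buffer was Tris-HCl pH 7.5 with KCl, MgCl2, BSA, DTT, tRNA and Tween-20. In it, SNAP-549-labelled MS2 coat protein was titrated in doubling steps from 0.7 or 1.5 nM to 3 µM over chip-bound RNA switches transcribed by stalled E. coli RNA polymerase on Illumina chips. Apparent KD is the per-design median over clusters of curve fits to normalised fluorescence.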

[1] = Eterna round: R95, input ligand: FMN 200 uM
[2] = Eterna round: R95, input ligand: microRNA oligo, concentration not stated
[3] = Eterna round: R95, input ligand: none
[4] = input ligand: microRNA oligo, concentration not stated

Row | Sequence | apparent KD of MS2 coat protein (input ligand: FMN 200 uM) [nM] | apparent KD of MS2 coat protein (input ligand: none) [nM] | apparent KD of MS2 coat protein [1] [nM] | apparent KD of MS2 coat protein [2] [nM] | apparent KD of MS2 coat protein [3] [nM] | apparent KD of MS2 coat protein [4] [nM]
1 | AUACGUGAGAAGGAUAUCACACGCCAGAGGCGUUGAGAAGGUUUCACAUGAGGAUCACCCAUGUGCUCUUCCAG [Orlaa] (Eterna round: R97, puzzle: Exclusion 6) | 61.3 | 23.5 | – | – | – | –
2 | GAUGGACAUGAGGAUCACCCAUGUAAGGAUAUACGGUUGGUAGAGAGAGAGAGGAAUGGUAGAAGGUACGGAGG [JR_Exclu1_Sub052] (puzzle: Exclusion 1) | – | – | 38.7 | 43.1 | 55.9 | –
3 | CCAUCGAGUGUGAGGAUAUGCUGGUCCUUGGAUCAGCAGAAGGCACAUGAGGAUCACCCAUGUGGAUACGGUGG [JL bmx4 3.19] (puzzle: Brourd's mod of Exclusion 4) | – | – | – | 30 | – | –
4 | AUCGUGUGAGGAUAUCGAUUAUGGAGGUCUAGGUCCAUACGCGAGAAGGCACAUGAGGAUCACCCAUGUAAUGG [jl-ex4-4.31 ViennaUCT mod] (Eterna round: R97, puzzle: Exclusion 4) | 126 | 309 | – | – | – | –
5 | AGCUGUGGCCGAGGAUAUCUGUCUCAUAAAACCGAAAUAUAAUCGGACAUGAGGAUCACCCAUGUAGAGAAGGCGGUCUCAGCA [Eli eng2 - 096] (Eterna round: R96, puzzle: Exclusion NG 2) | – | – | – | – | – | 15.8
6 | CCGGGCGCAGGAUAUACGUGGCCCAAAUAAAUAAUAACCACACAUGAGGAUCACCCAUGUAGAAGGGCGCCCGG [-26.59, -25.61 kcal, A 32%] (Eterna round: R97, puzzle: Exclusion 2) | 116 | 49.9 | – | – | – | –
7 | GGGAAGAACCAACAAGUAGACAUGAGGAUCACCCAUGUAGACUUCAUGUGCACGCAAAGCGUGCAAGCUCGUCUUAU [AK-miRNA-r3-14.4] (Eterna round: R97, puzzle: Sensor, turn-off variant 1) | 22.9 | 19.8 | – | – | – | –
8 | GUGUAGACAGGAUAUGCUUUGAGCAUAUGAGAGUAUGCUCGACAUGAGGAUCACCCAUGUAGAAGGGUCUACAC [LRO-Excl2-02] (puzzle: Exclusion 2) | – | – | – | 12.9 | – | –
9 | UACUUGUUAGGAUAUCUUACAUUUGCAUUAUAGCAACUAUUGGAGAAGGGACAUGAGGAUCACCCAUGUUUGGG [tap-tap-tappy16] (Eterna round: R97, puzzle: Exclusion 4) | 602 | 486 | – | – | – | –
10 | CCGAUGUGAGGAUAUACACUAGGGUGCGUAUACGUGAGCAAACAUGAGGAUCACCCAUGUAGAAGGCACUGAAA [Eternabot (Original) Solution 50] (Eterna round: R97, puzzle: Exclusion 2) | 117 | 30.9 | – | – | – | –
11 | ACGUACCUAGGAUAUACAUGGCCACAUGAUGCCAAGGAACAACUUGAGGAUCACCCAAGUAGAAGGAGGAAAAG [Riberace] (Eterna round: R97, puzzle: Exclusion 2) | 78.1 | 73.4 | – | – | – | –
12 | UGAUUGUUUACCAGAUUAUACAUGAGGAUCACCCAUGUAGAUCCUACGUGCACGUUAUACAGCUCGUCUUAUUCCCA [Sensor-V1 #74] (Eterna round: R97, puzzle: Sensor, turn-off variant 1) | 35.4 | 36.2 | – | – | – | –
13 | ACGUGAUAUCUGUCGGUGGACAUGAGGAUCACCCAUGUAAGCUUUUCGCUCGUCUUAUAACCCGGUGACAGACCUUC [Edraatis] (puzzle: Sensor v3, turn-off variant 1) | – | – | 33.7 | 417 | 48 | –
14 | CAUGAUCUUCGGAUCAUGGACAUGAGGAUCACCCAUGUCACGAGCAGAUCUUCAUGCAAGCUUUUUGCUCGUCUUAU [Sensor v3 - Turn-off variant 1 - 38] (puzzle: Sensor v3, turn-off variant 1) | – | – | 28 | 405 | 29.8 | –
15 | AAUAAUGCAGGAUAUACAUGAGGAUCACCCAUGUGAAUAAAAUAAAUAAAAUGAUAAAGUAGAAGGGCAAAUAA [JMF's solution 1] (puzzle: Exclusion 3) | – | – | 28 | 28.8 | 35.5 | –
16 | UGAUCUUUUGUUAGGAUAUGCUGGGUUUUUUCUCAGCAGAAGGGACAUGAGGAUCACCCAUGUUUUGUCAUAAA [Magic-07] (puzzle: Brourd's mod of Exclusion 4) | – | – | – | 20.3 | – | –

Row | Sequence | apparent KD of MS2 coat protein (input ligand: FMN 200 uM) [nM] | apparent KD of MS2 coat protein (input ligand: none) [nM] | apparent KD of MS2 coat protein [1] [nM] | apparent KD of MS2 coat protein [2] [nM] | apparent KD of MS2 coat protein [3] [nM] | apparent KD of MS2 coat protein [4] [nM]
17 | AGAAAGCAAGGAUAUACGAGGAGAAGGAGGAAAGUUAAAGGACAUGAGGAUCACCCAUGUAGAAGGUGCGAGAA [JR_Exclu2_Sub042] (puzzle: Exclusion 2) | – | – | 33.3 | 58.9 | 55.8 | –
18 | UGUUGUCGCGUAGGAUAUGGCCAACAGGCCCUAGGAUAUGGGAAACCAGAAGGAGCGCCAACAGGCGAGAAGGACGGGACAACU [pwkr exNG2 2xF7 2xFMN.19] (Eterna round: R96, puzzle: Exclusion NG 2) | 734 | 268 | – | – | – | 451
19 | CAUUAUUAUCGAGGAUAUCCUAUUGUAAUUCUGGGAGAAGGCGGACUCAACAUGAGGAUCACCCAUGUAAGACGGGUACUAGAG [Ex NG1 #23] (Eterna round: R96, puzzle: Exclusion NG 1) | 85.1 | 74.8 | – | – | – | 49.3
20 | UGUCAGAUGGUAGGAUAUCCGUAUCGCGUGUCCCUUUCCUAACAUGAGGAUCACCCAUGUCGGUGGGAGAAGGGCCGUAUGGUG [salish99_ExNG02_R04_037] (Eterna round: R96, puzzle: Exclusion NG 2) | 12.9 | 15.3 | – | – | – | 10.6
21 | GUGGCACAUGAGGAUCACCCAUGUCAGGAUAUCGCGUGUUUUUUUUCGGCCGCGCGCGCGAGAAGGGACGUCUU (puzzle: Exclusion 1) | – | – | – | 22.8 | – | –
22 | UUUAAUUUUUUUUUUUUACAAGCUUUUUGCUCGUCUUAUACAUGAGGAUCACCCAUGUGAAUGGAAGGUAAAUUAUC [JMF 68] (puzzle: Sensor v3, turn-off variant 2) | – | – | 17.3 | 18.4 | 20.4 | –
23 | UCACGGGUUUGAGGAUAUAUUAUUAUUAUUUAAAUAGAAGGCAAAGAAAUUGUUAUUUCACUAUACAUGAGGAUCACCCAUGUU [JR_ExcNG1_Sub088] (Eterna round: R96, puzzle: Exclusion NG 1) | – | – | – | – | – | 19.5
24 | AGUAGGUCUACCUUGGUGGAUCUGCAUUUUUGCAGGUGUACAUGAGGAUCACCCAUGUCCUCAUUUGCUCGUCUUAU [JL turnoff v2 99.30] (Eterna round: R96, puzzle: Sensor v3, turn-off variant 2) | 555 | 508 | – | – | – | 599
25 | UUUUAACAUGAGGAUCACCCAUGUGAGGAUAUCGAAAUUUAUAUUUAUAUUUAUAUAUCGAGAAGGCACAUUUU [JMF 96] (puzzle: Exclusion 1) | – | – | – | 118 | – | –
26 | AUAUCACAUGAGGAUCACCCAUGUCAGGAUAUGAUACUAUGUACUUCGGUACAUAGUAUCAGAAGGGAUAUGAA [Ex1-3: 66] (puzzle: Exclusion 1) | – | – | – | 45.4 | – | –
27 | AGAUUAAUAGUAAGGAUAUGAUGCAGGAAACUGCGUCAGAAGGUACAUGAGGAUCACCCAUGUUAAACUAAUUU [Explosion 7 - Jieux - Brourd's mod of Exclusion 4] (Eterna round: R97, puzzle: Brourd's mod of Exclusion 4) | 17.4 | 15 | – | – | – | –
28 | AAUUUACAUGAGGAUCACCCAUGUGAGGAUAUAUGCAAAGAAGUGUUAGUAAGAAAGCAUAGAAGGCGCGUGAU [JR_Exc1_Sub041] (Eterna round: R97, puzzle: Exclusion 1) | 64.6 | 47.8 | – | – | – | –
29 | AGAUAACAUGAGGAUCACCCAUGUCAGGAUAUCGACUGAACAGCUUCGGCUGUUCAGUCGAGAAGGGACAAUUA [Brourdxlusion 9 - Jieux - Exclusion 1] (Eterna round: R97, puzzle: Exclusion 1) | 84.1 | 61.2 | – | – | – | –
30 | GGUGCUGGCGCGUCGGUGUUGGUGCAAUAAGCUUGUGAAACAUGAGGAUCACCCAUGUCCUCAUAAGCUCGUCUUAU [salish99_TOv2_r2_086] (Eterna round: R96, puzzle: Sensor v3, turn-off variant 2) | 13.7 | 17.7 | – | – | – | 334
31 | ACGUGAUAUCUGUCGUUGGACAUGAGGAUCACCCAUGUAAGCUUUUUGCUCGUCUUAUAACCCGGUGACAGACCUUC [Dienlave] (puzzle: Sensor v3, turn-off variant 1) | – | – | 24.7 | 236 | 23.9 | –
32 | CAGUAGGCAGGAUAUACAUGAGGAUCACCCAUGUGAUUUAGUGCACGCGUACGUGUACGUAGAAGGGCCUACUG [JL 3.27 m7] (Eterna round: R97, puzzle: Exclusion 3) | 91.8 | 17.9 | – | – | – | –

— the supplement of paper PMC9170038
